Consider one molecule from publication PMC9122904, “Insights into the client protein release mechanism of the ATP-independent chaperone Spy” (Nature Communications, 2022).

Positions count from the first letter of the chain named. Names may count otherwise.

Assay in all cases: BLI; Octet RED96; client biotinylated and loaded on streptavidin sensors; Spy or Spy variant in solution at 0.25, 0.5, 1, 1.5 and 2 μM; 40 mM HEPES, 150 mM NaCl, pH 7.5; Kd calculated as koff/kon
Holding throughout (conditions): both partners purified

For assay [1], the target named is T1, Spy_(29-124) K121D R122D (UniProt P77754 52-147, K121D | R122D).
T1 construct: source: E. coli BL21 (DE3), purified (Ni-NTA, cation exchange, SEC); not shown: His6, N-terminal, cleaved; SUMO, N-terminal, cleaved
T1 sequence (looked up): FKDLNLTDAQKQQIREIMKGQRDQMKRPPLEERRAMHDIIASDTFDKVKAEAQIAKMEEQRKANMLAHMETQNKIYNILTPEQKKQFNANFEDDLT

Assay [2] deals with T2, Spy_(29-124) R50D (UniProt P77754 52-147, R50D).
T2 construct: source: E. coli BL21 (DE3), purified (Ni-NTA, cation exchange, SEC); not shown: His6, N-terminal, cleaved; SUMO, N-terminal, cleaved
T2 sequence (looked up): T1 sequence (looked up) with R22D, D93K, D94R

In assay [3] the target is T3, Spy_(29-124) R43D (UniProt P77754 52-147, R43D).
T3 construct: source: E. coli BL21 (DE3), purified (Ni-NTA, cation exchange, SEC); not shown: His6, N-terminal, cleaved; SUMO, N-terminal, cleaved
T3 sequence (looked up): T1 sequence (looked up) with R15D, D93K, D94R

The target in assay [4] is T4, Spy_(29-124) R89D (UniProt P77754 52-147, R89D).
T4 construct: source: E. coli BL21 (DE3), purified (Ni-NTA, cation exchange, SEC); not shown: His6, N-terminal, cleaved; SUMO, N-terminal, cleaved
T4 sequence (looked up): T1 sequence (looked up) with R61D, D93K, D94R

Assay [5] deals with T5, Spy_(29-124) R61D R62D (UniProt P77754 52-147, R61D | R62D).
T5 construct: source: E. coli BL21 (DE3), purified (Ni-NTA, cation exchange, SEC); not shown: His6, N-terminal, cleaved; SUMO, N-terminal, cleaved
T5 sequence (looked up): T1 sequence (looked up) with R33D, R34D, D93K, D94R

For assay [6], the target named is T6, Spy_(29-124) H96D (UniProt P77754 52-147, H96D).
T6 construct: source: E. coli BL21 (DE3), purified (Ni-NTA, cation exchange, SEC); not shown: His6, N-terminal, cleaved; SUMO, N-terminal, cleaved
T6 sequence (looked up): T1 sequence (looked up) with H68D, D93K, D94R

Assay [7] has as its target T7, Spy D26E (UniProt P77754 24-161, D26E).
T7 construct: source: E. coli BL21 (DE3), purified (Ni-NTA, cation exchange, SEC); not shown: His6, N-terminal, cleaved; SUMO, N-terminal, cleaved
T7 sequence (looked up): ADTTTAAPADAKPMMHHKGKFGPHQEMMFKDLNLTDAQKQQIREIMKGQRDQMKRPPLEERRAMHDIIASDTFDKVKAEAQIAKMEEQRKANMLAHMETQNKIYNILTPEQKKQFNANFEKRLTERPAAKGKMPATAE

Assay [8] concerns the target T8, Spy D26A (UniProt P77754 24-161, D26A).
T8 construct: source: E. coli BL21 (DE3), purified (Ni-NTA, cation exchange, SEC); not shown: His6, N-terminal, cleaved; SUMO, N-terminal, cleaved
T8 sequence (looked up): T7 sequence (looked up) with E26A

For assay [9], the target named is T9, Spy D26K (UniProt P77754 24-161, D26K).
T9 construct: source: E. coli BL21 (DE3), purified (Ni-NTA, cation exchange, SEC); not shown: His6, N-terminal, cleaved; SUMO, N-terminal, cleaved
T9 sequence (looked up): T7 sequence (looked up) with E26K

The target of assay [10] is T10, Spy D26R (UniProt P77754 24-161, D26R).
T10 construct: source: E. coli BL21 (DE3), purified (Ni-NTA, cation exchange, SEC); not shown: His6, N-terminal, cleaved; SUMO, N-terminal, cleaved
T10 sequence (looked up): T7 sequence (looked up) with E26R

B1: Im7 H40W L53A I54A (natural protein)
chain: MELKNSISDYTEAEFVQLLKEIEKENVAATDDVLDVLLEWFVKITEHPDGTDAAYYPSDNRDDSPEGIVKEIKEWRAANGKPGFKQG
modifications: biotin (EZ-link NHS-biotin, 1:1 molar ratio of biotin to protein)
notes: Im7 (colicin E7 immunity protein) with H40W L53A I54A; Spy was made with an N-terminal His6-SUMO tag that was cleaved; also called Im7AAW; partially folded client; source: purified by a similar procedure to Spy
Turning to B1, the koff in assay [1] was 0.349 s⁻¹; in assay [2], 0.477 s⁻¹; in [3], 0.601 s⁻¹; in [4] it was 0.125 s⁻¹; in assay [5] it was 0.262 s⁻¹; in [6] it was 0.234 s⁻¹. The koff is 0.196 s⁻¹ in assay [7], 0.0876 s⁻¹ in assay [8], 0.0775 s⁻¹ in assay [9] and 0.0811 s⁻¹ in assay [10].

The term koff denotes the first-order rate constant of dissociation.
